Assay: yeast display, Sf9 membrane polyspecificity reagent, FACS + sequencing; frameworks hold sequencing errors
Procedure, shortened: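 Polyreactivity labels are assigned by the sorting gate from which each nanobody was recovered. The gates were low and high (top ~1%), set on anti-HA fluorescence for expression and streptavidin fluorescence for reagent binding. Before sorting, galactose-induced (36–48 hours) yeast display cells were stained for 1 hour at 4 °C with 10% biotinylated, detergent-solubilized Sf9 membrane reagent.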

Row | Sequence | polyreactivity (PSR sort gate)
1 | QVQLVESGGGLVQAGGSLRLSCAASGIIFALYAMGWYRQAPGKERELVATITYSGGSTYYADSVKGRFTISRDNAKNTVYLQMNSLKPEDSAVYYCNRDQWPWESGYAYNYWGQGTQVTVSS | low polyreactivity
2 | QVQLVESGGGLVQAGCSLRLSCAASGFTFGSYAMGWYRQAPWKEREFVAAIRRSGSSTYYADSVKGRFTISRDNAKNTVYLQMNSLKPEDTAVYFCAADVYRRLRRYRYYYLGQGTQVTVSS | low polyreactivity
3 | QVQLVESGGGLVQAGGSLRLSCAASGRTSVRNAMGWYRQAPGKERELVAAISNGGRTNYADSVKGRFTISRDNAKNTVYLQMNSLKPEDTAVYYCAARGFWLYYHGGVRSGYDYWGQGTQVTVSS | high polyreactivity
4 | QDQLVDSGGGLVQAGGSLRLICAASGYIIHDNAMGWYRQAPGKERELVAAINRGGSTHYADSVKGRFTISRDNAKNTVYLQMNSLKPEDTAVYYCAAKDGRSYYDRTPMDYWGQGTQVTVSS | low polyreactivity
5 | QVQLVESGGGLVQAGGSLRLSCAASVFTFDENAMGWYRQAPGINYSGASTYYADSVKGRFTISRDNAKNTVYLQMNSLKPDDTAVYYCAAEVVAQMNYWGQGTQVTVSS | low polyreactivity
6 | QVQLVESGGGLVQAGGSLRLSCAASGIIFGRYAMGWYRQAPGKERELVAAISTSGGSTYYADSVKGRFTISRDNAKNTVYLQMNSLKPEDTAVYYCNAVPVVRAGHGYDSWGQGTQVTVSS | high polyreactivity
7 | PVQLVESGGGLVQAGGSLRLSCAACGRIFRYYAMGWYRQAPGKERELVAAISRSGGRTYYADSVKGRFTISRDNAKNTVYLEMNSLKPEDTAVYYCNALYYKYYPSRYDYWGLGTQVTVSS | high polyreactivity
8 | QFQLVESGGGLVQAGGSLRLSCAASGFTFYPYAMGWSRQAPGKERELVAAITRSGTSTFYADSVKGRFTISRDNAKNTVYLQMNSLKPEDTAVYYCAKGYFFVGTDWESYYWGQGTQVTVSS | low polyreactivity
9 | QVQLVESGGGLVQAGGSLRLSCAASGSIFSYYAMGWYRQAPGKERELVADITANDGSTYYADSVKGRFTISRDNAKNTVYLQMNSLKPEDTAVYYCAAEYYYPIWGPYDYWGQGTQVTVSS | high polyreactivity
10 | QVQLVESGGGLVQAGGSLRLSCAAWSIFYLNAMGWYRQAHGKERELVAAISSAGSTYYADSVKGRFTISRDNAKKTVYLHMNSLKPEDTAVYYCAAYWYDSPGVTEIWYDYWGQGTQVTVSS | low polyreactivity
11 | QVQLVETGGRLVQAGGSLRLSCAASGSTFDIYVIGWSRQAPGKERELVAAISRVGNTSYADSVKGRFTISRDNAKNTVYLQMNSLIPEDTAVYYCAADAPSWYDRQYDYWGQGTQVTVSS | low polyreactivity
12 | QVQLVESGGCLVQAGGSLRLSCAASGGTFGPNAKGSYRQAPGKERELVAAISWTTGRTYADSVKGRFTISRDNAKNTVYLQMNSLKPEDTAVYYCATRAYRLDPLQHDYWGQGTQVTVSS | low polyreactivity
13 | QVQLVESGGGLVQAGCSLRLSCAASGRIFTGNAMGWYRQAPGKERELVAAISRSGGRTYYADSVKGRFTISRDNAKNTVYLQMNSLKPEDTAVYYCAAAGYYHTYWGTMDYWGQGTQVTVSS | high polyreactivity
14 | QVQLVESGGGLVQAGGSLRLSCAASGFTFFYYAMGWYRQAPGKERELVARISSSGGRTYYADSVKGRFTISRDNAKNTVYLQMNSLKPEDTAVYYCNARYYYYYTRYDYWGQGTQVTVSS | high polyreactivity
15 | QVLLQESGGGLVQAGGSLRLGCAASGTISPAYYMGRSHQAPGKEREFVAAITYGTNTYYADSVKGRFTISRDNAKNTVYLQMNSLKPEDTAVYYCSATAGYNGAHDYWGQGTQVTVSS | low polyreactivity
16 | QDQLVESGGGLVQAGGSLRLSCAASGFTFYYNAMVLYRQAPGKERELVASISSNGTSTYYADSVKGRFTISLDNEKNTVYLHMNILKPEDTAVHYCNVDIFDPRTYVYWGQGTQVTVSS | low polyreactivity

Row | Sequence | polyreactivity (PSR sort gate)
17 | QVQLVESGGGLVQAGGTLRLSCAASGITFYVYAMGWYRQAPGKEREFVAAINGRGGSTYYADSVKGRFTISRDNAKNTVYLQMNSLKPEDTAVFYCAAESLAIYYKYPPYDYWGQGTQVTVSS | high polyreactivity
18 | QVQLVESGGGLVQAGGSLRLSCAASGSTFLVYAMGWYRQAPGKERELVAAINFSGSSTYYADSVKGRFTISRDNAENTVYLQMNSLKPEDTAVYYCAADSLELWYGYFWVKVPYDYWGQGTQVTVSS | low polyreactivity
19 | QVQLVESGGGLVQAGGSLRLTCAASGYTFWLNGMGWYRHAPGKERELVAAISSSGGSTYYADSVKGRFTISRDNAKNTVYLQMNSLKPEDTAVYDCAVDAYWRHWYYPYESHHDYWGQGTQVTVST | low polyreactivity
20 | QVQLVESGGGLVQAGGSLRLSCAASGRIFVYNVMGWYSQAPGKERELVAAISWGTGSTYADSVKGRFTISRANAKNSVYLQMNSLKPEDTAVYYCAADSFIPPYDHWGQGTQVTVSS | low polyreactivity
21 | QVQLQESGGGQVHAGGSLRLSCAASGTIFLYAFMGWYRQPPAKERELVAAIDVGTTTNYADSVKGRFTISRDNEKNTVYLQMNSLKPEDTAVYYCAANLGYLDDLGYWGQGTQVTVSS | low polyreactivity
22 | QVQLVESGGGLVQAGGSLRLSCAASGRTLRRYAMGSYREAPGKERELVATISGRGGSTYYADSVMGRFTISRDNAKNTVYLQMNSLKPEYTAVYYCNRVTSRVSGRYSYDYWGQGTQVTVSS | high polyreactivity
23 | QVQLVESGGGLVQAGGSLRLSCDASGSIFSTYVMGWYRQAPGKERELVAAITVSVGSTYYADSVKGRFTISRDNAKNTVYLQMNSLKPEDTAVYYCAAGSYSRYLYSLYFDFDYWGQGTQVTVSS | low polyreactivity
24 | QVQLVESGGGLVQEGGSLRLSCAASGIIFSIYAMGWYRQAPGKERELVAVISRSSGSTYYADSVKGRFTISRDNAKNTVYLQMNSLIPEDTSVYFCAARKNRAYGYWGQGTEVTVSS | high polyreactivity
25 | QVQLVESGGGLVQSGGSLRLSCAASGRTFYGNAMGWYRQAPGKERELVAAITSSGGSTYYADSVKGRFTISRDNAKNTVYLQMNSLKPEDNAVYYCAAYTYLEDFESWGQGTQVTVSS | high polyreactivity
26 | QDHLVESGGGLVPAGGSLRLSCAASGRIVYYVMGRYRQAPGKERELVAAISTRGGSTYYADSVKGRFTISRDNPKNTVYLQMNSLKAEDTAVYYCADSSLLTRYNSWGQGTQVTVSS | high polyreactivity
27 | QVQLVESGGGLVQAGGSLRLSCAASGSTFKRYAMGWYRQAPGKERELVAAITNGDRTNYADSVKGRFTISRDNAKNTVYLQMNSLKPEDTAVYYCAAAYSRYTSRFYYWGQGTQVTVSS | high polyreactivity
28 | QVQLVESGGGLVQAGGSLRLSCAASGRTFYGYAMGWYRQAPGKERELVATITSGGSTKYADSVKGRFTISRDNAKNTVYLQMNSLKPEDTAVYYCAARTGGHRGYDYWGQGTQVTVSS | low polyreactivity
29 | QVQLAESGGGLVQAGGSLRLSCAASGSIFWGNAMGWYRQATGKERELVAAIDWSGGSTYYADSVKGRFTISRDNGKNTVYLQMNSLKAEDTAVYYCAASGRYDYDYWGQGTQVTVSS | low polyreactivity
30 | QVQLVESGGGLVQAGGSLRLSCAASGNIFYAYDMGWYRQAPGKERELVAAITNGDSTDYADSVKGRFTISRENAKNTVYLQMNSLKPEDTAVYYCNADYLPAPWALGGSQYDYCGQGTQVTVSS | low polyreactivity
31 | QVQLVESGGGLVQAGGSLRLSCAASGIIFPTYAMGWYRQAPGKERELVAAISVSGGTTSYADSVKGRFTISRDNAKNTVYLQMNSLKPEDTAVYYCAARKYSYPVAAHYYWGQGTQVTVSS | high polyreactivity
32 | QVQIVDSGGGLVQAGGSLRLSCAASGRNFGYYAMGWYRQAPGKERELVAAISYSGGSTYYADSVKGRFTISRDMAKNTVYCQMNSLKPEDTAVYYCAAPGRWPQRYGYWGLGTQVTVSS | high polyreactivity

Source: the nanobody polyreactivity screen of Harvey et al. (2022)
